T1: PUF4 RNA-binding domain (Saccharomyces cerevisiae, UniProt P25339 537-888)
T1 sequence: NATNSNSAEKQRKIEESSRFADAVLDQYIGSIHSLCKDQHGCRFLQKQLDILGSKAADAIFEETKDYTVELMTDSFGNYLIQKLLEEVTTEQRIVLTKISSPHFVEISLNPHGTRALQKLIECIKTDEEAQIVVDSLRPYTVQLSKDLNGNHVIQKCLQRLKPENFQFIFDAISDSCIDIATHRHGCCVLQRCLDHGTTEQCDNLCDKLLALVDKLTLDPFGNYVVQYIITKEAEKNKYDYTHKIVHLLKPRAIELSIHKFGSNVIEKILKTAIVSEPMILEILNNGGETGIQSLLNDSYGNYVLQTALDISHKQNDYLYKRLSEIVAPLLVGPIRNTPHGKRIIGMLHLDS


Target: T1, PUF4 RNA-binding domain
Assay: Mg; RNA-MaP; 20 mM Na-HEPES pH 7.4, 30 mM KOAc, 0.75 mM MgCl2, 0.1% Tween-20, 5% glycerol, 0.1 mg/mL BSA, 2 mM DTT; 25 C; 0.0125-409.6 nM protein
Conditions: tags: N-His6-TEV cleaved; C-SNAP kept, Cy3B-labelled; label: tethered on chip by stalled RNA polymerase

Binder | Kd
Id_ii_S2_P4E.2_K4.1_C4.2_[C-2T]_[T-1G]_H4.1_A4.1_F4.1_T4.2_[G10T]_[T11C] (ssRNA) RNA: UUUGAUUAAUAUGAUAUCGUUCUUUCUUGUGUAUAUUAUCUUCUUUCUCGAUAUCAUAUUAAUCUUU | 0.441 nM
Id_ii_S2_P4E.2_K4.1_C4.2_[C-2A]_[T-1C]_H4.1_A4.1_F4.1_T4.2_[G10T] (ssRNA) RNA: UUUGAUUAAUAUGAUAUCGUUCUUUCUACUGUAUAUUAUUUUCUUUCUCGAUAUCAUAUUAAUCUUU | 0.296 nM
Id_ii_S2_P4E.2_K4.1_C4.2_[C-2T]_H4.1_A4.1_F4.1_T4.2_[G10A] (ssRNA) RNA: UUUGAUUAAUAUGAUAUCGUUCUUUCUUUUGUAUAUUAAUUUCUUUCUCGAUAUCAUAUUAAUCUUU | 0.408 nM
Id_ii_S2_P4E.2_K4.1_C4.2_[C-2T]_H4.1_A4.1_F4.1_T4.2_[G10T]_[T11A] (ssRNA) RNA: UUUGAUUAAUAUGAUAUCGUUCUUUCUUUUGUAUAUUAUAUUCUUUCUCGAUAUCAUAUUAAUCUUU | 0.564 nM
Id_ii_S2_P4E.2_K4.1_C4.2_[C-2A]_[T-1C]_H4.1_A4.1_F4.1_T4.2_[G10T]_[T11C] (ssRNA) RNA: UUUGAUUAAUAUGAUAUCGUUCUUUCUACUGUAUAUUAUCUUCUUUCUCGAUAUCAUAUUAAUCUUU | 0.33 nM
Id_ii_S2_P4E.2_K4.1_C4.2_[C-2T]_[T-1G]_H4.1_A4.1_F4.1_T4.2_[G10A]_[T11A] (ssRNA) RNA: UUUGAUUAAUAUGAUAUCGUUCUUUCUUGUGUAUAUUAAAUUCUUUCUCGAUAUCAUAUUAAUCUUU | 0.532 nM
Id_ii_S2_P4E.2_K4.1_C4.2_[C-2A]_[T-1C]_H4.1_A4.1_F4.1_T4.2_[G10A]_[T11A] (ssRNA) RNA: UUUGAUUAAUAUGAUAUCGUUCUUUCUACUGUAUAUUAAAUUCUUUCUCGAUAUCAUAUUAAUCUUU | 0.702 nM
Id_ii_S2_P4E.2_K4.1_C4.2_[C-2T]_H4.1_A4.1_F4.1_T4.2_[G10T]_[T11C] (ssRNA) RNA: UUUGAUUAAUAUGAUAUCGUUCUUUCUUUUGUAUAUUAUCUUCUUUCUCGAUAUCAUAUUAAUCUUU | 0.364 nM
Id_ii_S2_P4E.2_K4.1_C4.2_[C-2A]_[T-1C]_H4.1_A4.1_F4.1_T4.2_[G10T]_[T11G] (ssRNA) RNA: UUUGAUUAAUAUGAUAUCGUUCUUUCUACUGUAUAUUAUGUUCUUUCUCGAUAUCAUAUUAAUCUUU | 1.95 nM
Id_ii_S2_P4E.2_K4.1_C4.2_[C-2T]_[T-1C]_H4.1_A4.1_F4.1_T4.2_[G10A]_[T11C] (ssRNA) RNA: UUUGAUUAAUAUGAUAUCGUUCUUUCUUCUGUAUAUUAACUUCUUUCUCGAUAUCAUAUUAAUCUUU | 0.526 nM
Id_ii_S2_P4E.2_K4.1_C4.2_[C-2A]_[T-1G]_H4.1_A4.1_F4.1_T4.2_[G10T]_[T11G] (ssRNA) RNA: UUUGAUUAAUAUGAUAUCGUUCUUUCUAGUGUAUAUUAUGUUCUUUCUCGAUAUCAUAUUAAUCUUU | 1.63 nM
Id_ii_S2_P4E.2_K4.1_C4.2_[C-2T]_[T-1C]_H4.1_A4.1_F4.1_T4.2 (ssRNA) RNA: UUUGAUUAAUAUGAUAUCGUUCUUUCUUCUGUAUAUUAGUUUCUUUCUCGAUAUCAUAUUAAUCUUU | 0.446 nM
Id_ii_S2_P4E.2_K4.1_C4.2_[C-2T]_[T-1A]_H4.1_A4.1_F4.1_T4.2_[G10A]_[T11A] (ssRNA) RNA: UUUGAUUAAUAUGAUAUCGUUCUUUCUUAUGUAUAUUAAAUUCUUUCUCGAUAUCAUAUUAAUCUUU | 1.03 nM
Id_ii_S2_P4E.2_K4.1_C4.2_[C-2T]_[T-1A]_H4.1_A4.1_F4.1_T4.2_[G10T] (ssRNA) RNA: UUUGAUUAAUAUGAUAUCGUUCUUUCUUAUGUAUAUUAUUUUCUUUCUCGAUAUCAUAUUAAUCUUU | 0.502 nM
Id_ii_S2_P4E.2_K4.1_C4.2_[C-2T]_[T-1A]_H4.1_A4.1_F4.1_T4.2_[G10C]_[T11C] (ssRNA) RNA: UUUGAUUAAUAUGAUAUCGUUCUUUCUUAUGUAUAUUACCUUCUUUCUCGAUAUCAUAUUAAUCUUU | 0.822 nM
Id_ii_S2_P4E.2_K4.1_C4.2_[C-2T]_[T-1A]_H4.1_A4.1_F4.1_T4.2_[G10T]_[T11C] (ssRNA) RNA: UUUGAUUAAUAUGAUAUCGUUCUUUCUUAUGUAUAUUAUCUUCUUUCUCGAUAUCAUAUUAAUCUUU | 0.618 nM
Id_ii_S2_P4E.2_K4.1_C4.2_[C-2T]_H4.1_A4.1_F4.1_T4.2_[G10T] (ssRNA) RNA: UUUGAUUAAUAUGAUAUCGUUCUUUCUUUUGUAUAUUAUUUUCUUUCUCGAUAUCAUAUUAAUCUUU | 0.26 nM
Id_ii_S2_P4E.2_K4.1_C4.2_[C-2A]_[T-1C]_H4.1_A4.1_F4.1_T4.2_[G10A]_[T11C] (ssRNA) RNA: UUUGAUUAAUAUGAUAUCGUUCUUUCUACUGUAUAUUAACUUCUUUCUCGAUAUCAUAUUAAUCUUU | 0.678 nM
Id_ii_S2_P4E.2_K4.1_C4.2_[C-2T]_[T-1G]_H4.1_A4.1_F4.1_T4.2_[G10A] (ssRNA) RNA: UUUGAUUAAUAUGAUAUCGUUCUUUCUUGUGUAUAUUAAUUUCUUUCUCGAUAUCAUAUUAAUCUUU | 0.4 nM
Id_ii_S2_P4E.2_K4.1_C4.2_[C-2T]_H4.1_A4.1_F4.1_T4.2_[T11C] (ssRNA) RNA: UUUGAUUAAUAUGAUAUCGUUCUUUCUUUUGUAUAUUAGCUUCUUUCUCGAUAUCAUAUUAAUCUUU | 0.396 nM
Id_ii_S2_P4E.2_K4.1_C4.2_[C-2A]_[T-1C]_H4.1_A4.1_F4.1_T4.2_[G10A] (ssRNA) RNA: UUUGAUUAAUAUGAUAUCGUUCUUUCUACUGUAUAUUAAUUUCUUUCUCGAUAUCAUAUUAAUCUUU | 0.442 nM

Binder | Kd
Id_ii_S2_P4E.2_K4.1_C4.2_[C-2T]_[T-1A]_H4.1_A4.1_F4.1_T4.2 (ssRNA) RNA: UUUGAUUAAUAUGAUAUCGUUCUUUCUUAUGUAUAUUAGUUUCUUUCUCGAUAUCAUAUUAAUCUUU | 0.715 nM
Id_ii_S2_P4E.2_K4.1_C4.2_[C-2A]_[T-1C]_H4.1_A4.1_F4.1_T4.2_[G10T]_[T11A] (ssRNA) RNA: UUUGAUUAAUAUGAUAUCGUUCUUUCUACUGUAUAUUAUAUUCUUUCUCGAUAUCAUAUUAAUCUUU | 0.628 nM
Id_ii_S2_P4E.2_K4.1_C4.2_[C-2A]_[T-1C]_H4.1_A4.1_F4.1_T4.2_[G10C] (ssRNA) RNA: UUUGAUUAAUAUGAUAUCGUUCUUUCUACUGUAUAUUACUUUCUUUCUCGAUAUCAUAUUAAUCUUU | 1.25 nM
Id_ii_S2_P4E.2_K4.1_C4.2_[C-2T]_H4.1_A4.1_F4.1_T4.2_[G10C]_[T11C] (ssRNA) RNA: UUUGAUUAAUAUGAUAUCGUUCUUUCUUUUGUAUAUUACCUUCUUUCUCGAUAUCAUAUUAAUCUUU | 0.557 nM
Id_ii_S2_P4E.2_K4.1_C4.2_[C-2T]_H4.1_A4.1_F4.1_T4.2_[G10T]_[T11G] (ssRNA) RNA: UUUGAUUAAUAUGAUAUCGUUCUUUCUUUUGUAUAUUAUGUUCUUUCUCGAUAUCAUAUUAAUCUUU | 0.421 nM
Id_ii_S2_P4E.2_K4.1_C4.2_[C-2A]_[T-1G]_H4.1_A4.1_F4.1_T4.2_[G10T]_[T11C] (ssRNA) RNA: UUUGAUUAAUAUGAUAUCGUUCUUUCUAGUGUAUAUUAUCUUCUUUCUCGAUAUCAUAUUAAUCUUU | 2.27 nM
Id_ii_S2_P4E.2_K4.1_C4.2_[C-2T]_[T-1C]_H4.1_A4.1_F4.1_T4.2_[G10C] (ssRNA) RNA: UUUGAUUAAUAUGAUAUCGUUCUUUCUUCUGUAUAUUACUUUCUUUCUCGAUAUCAUAUUAAUCUUU | 0.602 nM
Id_ii_S2_P4E.2_K4.1_C4.2_[C-2T]_H4.1_A4.1_F4.1_T4.2_[G10C] (ssRNA) RNA: UUUGAUUAAUAUGAUAUCGUUCUUUCUUUUGUAUAUUACUUUCUUUCUCGAUAUCAUAUUAAUCUUU | 0.762 nM
Id_ii_S2_P4E.2_K4.1_C4.2_[C-2T]_[T-1C]_H4.1_A4.1_F4.1_T4.2_[G10A]_[T11A] (ssRNA) RNA: UUUGAUUAAUAUGAUAUCGUUCUUUCUUCUGUAUAUUAAAUUCUUUCUCGAUAUCAUAUUAAUCUUU | 0.481 nM
Id_ii_S2_P4E.2_K4.1_C4.2_[C-2A]_[T-1G]_H4.1_A4.1_F4.1_T4.2_[G10A]_[T11A] (ssRNA) RNA: UUUGAUUAAUAUGAUAUCGUUCUUUCUAGUGUAUAUUAAAUUCUUUCUCGAUAUCAUAUUAAUCUUU | 1.64 nM
Id_ii_S2_P4E.2_K4.1_C4.2_[C-2A]_[T-1A]_H4.1_A4.1_F4.1_T4.2_[G10C]_[T11C] (ssRNA) RNA: UUUGAUUAAUAUGAUAUCGUUCUUUCUAAUGUAUAUUACCUUCUUUCUCGAUAUCAUAUUAAUCUUU | 2.15 nM
Id_ii_S2_P4E.2_K4.1_C4.2_[C-2A]_[T-1G]_H4.1_A4.1_F4.1_T4.2_[G10A] (ssRNA) RNA: UUUGAUUAAUAUGAUAUCGUUCUUUCUAGUGUAUAUUAAUUUCUUUCUCGAUAUCAUAUUAAUCUUU | 0.973 nM
Id_ii_S2_P4E.2_K4.1_C4.2_[C-2T]_[T-1A]_H4.1_A4.1_F4.1_T4.2_[T11C] (ssRNA) RNA: UUUGAUUAAUAUGAUAUCGUUCUUUCUUAUGUAUAUUAGCUUCUUUCUCGAUAUCAUAUUAAUCUUU | 0.523 nM
Id_ii_S2_P4E.2_K4.1_C4.2_[C-2T]_H4.1_A4.1_F4.1_T4.2 (ssRNA) RNA: UUUGAUUAAUAUGAUAUCGUUCUUUCUUUUGUAUAUUAGUUUCUUUCUCGAUAUCAUAUUAAUCUUU | 0.456 nM
Id_ii_S2_P4E.2_K4.1_C4.2_[C-2T]_[T-1C]_H4.1_A4.1_F4.1_T4.2_[G10C]_[T11C] (ssRNA) RNA: UUUGAUUAAUAUGAUAUCGUUCUUUCUUCUGUAUAUUACCUUCUUUCUCGAUAUCAUAUUAAUCUUU | 0.565 nM
Id_ii_S2_P4E.2_K4.1_C4.2_[C-2T]_[T-1A]_H4.1_A4.1_F4.1_T4.2_[G10A] (ssRNA) RNA: UUUGAUUAAUAUGAUAUCGUUCUUUCUUAUGUAUAUUAAUUUCUUUCUCGAUAUCAUAUUAAUCUUU | 0.878 nM
Id_ii_S2_P4E.2_K4.1_C4.2_[C-2T]_[T-1C]_H4.1_A4.1_F4.1_T4.2_[G10T]_[T11C] (ssRNA) RNA: UUUGAUUAAUAUGAUAUCGUUCUUUCUUCUGUAUAUUAUCUUCUUUCUCGAUAUCAUAUUAAUCUUU | 0.305 nM
Id_ii_S2_P4E.2_K4.1_C4.2_[C-2T]_[T-1G]_H4.1_A4.1_F4.1_T4.2_[G10T] (ssRNA) RNA: UUUGAUUAAUAUGAUAUCGUUCUUUCUUGUGUAUAUUAUUUUCUUUCUCGAUAUCAUAUUAAUCUUU | 0.23 nM
UCUCUUGGUAUUAUUCUCUCUU (ssRNA) [Ib_S1_P5E.1_K5.1_C5.1_H5.1_[T1G]_A5.1_F5.1_[A10C]_T5.1] | > 2300 nM
UCUCUUAGUAUUAUUGUCUCUU (ssRNA) [Ib_S1_P5E.1_K5.1_C5.1_H5.1_[T1A]_A5.1_F5.1_[A10G]_T5.1] | > 2300 nM
UCUCUUGGUAUUAUUGUCUCUU (ssRNA) [Ib_S1_P5E.1_K5.1_C5.1_H5.1_[T1G]_A5.1_F5.1_[A10G]_T5.1] | > 2300 nM

Reference: publication PMC9352680, “A comprehensive thermodynamic model for RNA binding by the Saccharomyces cerevisiae Pumilio protein PUF4”
